Results on five variants are retold here after IntAct's records for PubMed 26728129.

Sequences and labels used below:
B1: Probable proton-coupled zinc antiporter SLC30A3 (Homo sapiens), Q99726 (parent)
chain: MEPSPAAGGLETTRLVSPRDRGGAGGSLRLKSLFTEPSEPLPEESKPVEMPFHHCHRDPLPPPGLTPERLHARRQLYAACAVCFVFMAGEVVGGYLAHSLAIMTDAAHLLADVGSMMGSLFSLWLSTRPATRTMTFGWHRSETLGALASVVSLWMVTGILLYLAFVRLLHSDYHIEGGAMLLTASIAVCANLLMAFVLHQAGPPHSHGSRGAEYAPLEEGPEEPLPLGNTSVRAAFVHVLGDLLQSFGVLAASILIYFKPQYKAADPISTFLFSICALGSTAPTLRDVLRILMEGTPRNVGFEPVRDTLLSVPGVRATHELHLWALTLTYHVASAHLAIDSTADPEAVLAEASSRLYSRFGFSSCTLQVEQYQPEMAQCLRCQEPPQA
partner: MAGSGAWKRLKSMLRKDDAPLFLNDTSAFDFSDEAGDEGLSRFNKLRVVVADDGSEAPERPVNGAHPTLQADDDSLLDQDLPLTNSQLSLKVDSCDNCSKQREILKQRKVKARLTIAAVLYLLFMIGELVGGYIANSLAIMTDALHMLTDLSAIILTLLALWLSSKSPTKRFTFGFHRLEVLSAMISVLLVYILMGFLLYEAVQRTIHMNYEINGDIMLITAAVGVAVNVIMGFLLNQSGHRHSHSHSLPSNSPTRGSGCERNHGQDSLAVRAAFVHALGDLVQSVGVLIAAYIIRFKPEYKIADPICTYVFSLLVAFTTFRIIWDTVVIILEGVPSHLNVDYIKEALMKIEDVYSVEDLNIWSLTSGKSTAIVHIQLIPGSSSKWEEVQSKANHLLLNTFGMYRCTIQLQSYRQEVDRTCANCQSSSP
B2: Calcium/manganese antiporter SLC30A10 (Homo sapiens), Q6XR72 (parent)
chain: MGRYSGKTCRLLFMLVLTVAFFVAELVSGYLGNSIALLSDSFNMLSDLISLCVGLSAGYIARRPTRGFSATYGYARAEVVGALSNAVFLTALCFTIFVEAVLRLARPERIDDPELVLIVGVLGLLVNVVGLLIFQDCAAWFACCLRGRSRRLQQRQQLAEGCVPGAFGGPQGAEDPRRAADPTAPGSDSAVTLRGTSVERKREKGATVFANVAGDSFNTQNEPEDMMKKEKKSEALNIRGVLLHVMGDALGSVVVVITAIIFYVLPLKSEDPCNWQCYIDPSLTVLMVIIILSSAFPLIKETAAILLQMVPKGVNMEELMSKLSAVPGISSVHEVHIWELVSGKIIATLHIKYPKDRGYQDASTKIREIFHHAGIHNVTIQFENVDLKEPLEQKDLLLLCNSPCISKGCAKQLCCPPGALPLAHVNGCAEHNGGPSLDTYGSDGLSRRDAREVAIEVSLDSCLSDHGQSLNKTQEDQCYVNRTHF
partner: B1 chain
B3: Probable proton-coupled zinc antiporter SLC30A3 (Homo sapiens), Q99726 (parent)
chain: B1 chain
partner: B2 chain

Variants of B1 are the subject of the first experiment. To be noted: with znt4_human SLC30A4, O14863.
As to Y257F, the “effect of a mutation on the interaction” value is listed as “decreasing interaction strength”. On the same count and under the same terms, then Y262F, with “decreasing interaction strength”.

Variants of B2 are the subject of a further experiment. Particulars: with znt3_human SLC30A3, Q99726.
Turning to Y4F, the “effect of a mutation on the interaction” value is listed as “decreasing interaction strength”.

A further experiment covers variants of B3. To be noted: with znt10_human SLC30A10, Q6XR72.
With Y262F, the “effect of a mutation on the interaction” value is “decreasing interaction strength”.

On to Y257F, for which the “effect of a mutation on the interaction” value is given as “decreasing interaction strength”.
